# In patent US6573364 (CURAGEN, dated 2003):
# T1: HPS protein fragment 1272-2306 fused to the Gal4 activator domain (reverse screen) (yeast; human, UniProt Q92902 356-700)
# T1 construct: Residue limits are derived from the printed nucleotide limits; also called HPS protein domain comprised of nucleotides 1272-2306; HPS U65676 1272-2306; not shown: order of the two pie
# T1 sequence: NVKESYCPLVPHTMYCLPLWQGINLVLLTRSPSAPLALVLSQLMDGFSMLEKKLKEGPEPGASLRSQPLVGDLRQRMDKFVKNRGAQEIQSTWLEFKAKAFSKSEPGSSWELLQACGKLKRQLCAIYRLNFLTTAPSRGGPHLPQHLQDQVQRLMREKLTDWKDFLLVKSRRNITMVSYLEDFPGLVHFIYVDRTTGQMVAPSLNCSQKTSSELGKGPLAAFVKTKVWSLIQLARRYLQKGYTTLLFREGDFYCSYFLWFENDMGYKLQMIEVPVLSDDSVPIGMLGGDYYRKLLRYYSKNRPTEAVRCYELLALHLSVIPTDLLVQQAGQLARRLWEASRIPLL
# B1: HPIP1 (prey sequence of 619 nucleotides, interaction starting at nucleotide 1) fused to the Gal4 activator domain (other, not shown: large carriers)
# chain: GTRLSINPNNHSWLIIQADIYFATNQYSAALHYYLQAGAVCSDFFNKAVPPDVYTDQVIKRMIKCCSLLNCHTQVAILCQFLREIDYKTAFKSLQEQNSHDAMDSYYDYIWDVTILEYLTYLHHKRGETDKRQIAIKAIGQTELNASNPEEVLQLAAQRRKKKFLQAMAKLYF
# notes: Prey of the forward screen, 3 identical clones from a human fetal brain cDNA library; also called cg49368.b1; cg49367.h11
# B2: 14-3-3 protein eta isoform, prey insert starting at nucleotide 764 of GenBank X80536, fused to the Gal4 DNA binding domain (other, yeast)
# chain: MKLLSSIEQACDICRLKKLKCSKEKPKCAKCLKNNWECRYSPKTKRSPLTRAHLTEVESRLERLEQLFLLIFPREDLDMILKMDSLQDIKALLTGLFVQDNVNKDAVTDRLASVETDMPLTLRQHRISATSSSEESSNKGQRQLTVSQACLLAKQAFDDAIAELDTLNEDSYKDSTLIMQLLRDNLTLWTSDQQDEEAGEGN
# notes: Prey from a human fetal brain cDNA library, reverse screens; Residue limits derived from the printed nucleotide start; also called 14-3-3 eta
# B3: HPS protein fragment 1272-2357 fused to the Gal4 activator domain (reverse screen) (other)
# chain: NVKESYCPLVPHTMYCLPLWQGINLVLLTRSPSAPLALVLSQLMDGFSMLEKKLKEGPEPGASLRSQPLVGDLRQRMDKFVKNRGAQEIQSTWLEFKAKAFSKSEPGSSWELLQACGKLKRQLCAIYRLNFLTTAPSRGGPHLPQHLQDQVQRLMREKLTDWKDFLLVKSRRNITMVSYLEDFPGLVHFIYVDRTTGQMVAPSLNCSQKTSSELGKGPLAAFVKTKVWSLIQLARRYLQKGYTTLLFREGDFYCSYFLWFENDMGYKLQMIEVPVLSDDSVPIGMLGGDYYRKLLRYYSKNRPTEAVRCYELLALHLSVIPTDLLVQQAGQLARRLWEASRIPLL
# notes: Codes for the same HPS residues as the 1272-2306 construct but is a separate construct; also called HPS protein domain 1272-2357; HPS U65676 1272-2357; not shown: order of the two pie
# B4: BMK1 alpha kinase, prey insert starting at nucleotide 2431 of GenBank U29725, fused to the Gal4 DNA binding domain (other, yeast)
# chain: MKLLSSIEQACDICRLKKLKCSKEKPKCAKCLKNNWECRYSPKTKRSPLTRAHLTEVESRLERLEQLFLLIFPREDLDMILKMDSLQDIKALLTGLFVQDNVNKDAVTDRLASVETDMPLTLRQHRISATSSSEESSNKGQRQLTVSGAGYGVGFDLEEFLNQSFDMGVADGPQDGQADSASLSASLLADWLEGHGMNPADIESLQREIQMDSPMLLADLPDLQDP
# notes: Prey of the reverse screen, 2 isolates; Residue limits derived from the printed nucleotide start
# B5: HPS protein fragment 210-1292 fused to the Gal4 activator domain (reverse screen) (other)
# chain: KCVLVATEGAEVLFYWTDQEFEESLRLKFGQSENEEEELPALEDQLSTLLAPVIISSMTMLEKLSDTYTCFSTENGNFLYVLHLFGECLFIAINGDHTESEGDLRRKLYVLKYLFEVHFGLVTVDGHLIRKELRPPDLAQRVQLWEHFQSLLWTYSRLREQEQCFAVEALERLIHPQLCELCIEALERHVIQAVNTSPERGGEEALHAFLLVHSKLLAFYSSHSASSLRPADLLALILLVQDLYPSESTAEDDIQPSPRRARSSQNIPVQQAWSPHSTGPTGGSSAETETDSFSLPEEYFTPAPSPGDQSSGSTIWLEGGTPPMDALQIAEDTLQTLVPHCPVPSGPRRIFLDANVKESYC
# notes: Residue limits are derived from the printed nucleotide limits; also called HPS protein domain 210-1292; HPS U65676 210-1292; not shown: order of the two pie
# Tests used:
# [1] = target: T2, HPS protein bait fragment 210-1292 fused to the Gal4 DNA binding domain (forward screen) (yeast; human, UniProt P04386 1-147); assay: yeast two-hybrid, forward screen; listed in Table I as an interaction with HPS 210-1292, 3 isolates
# T2 construct: Residue limits are derived from the printed nucleotide limits; also called Hermansky-Pudlak Syndrome protein; HPS U65676 210-1292
# Experimental: (§1) The two mating strains ([…]) were then diluted in YAPD media (see Id.) filtered onto nitrocellulose membranes and incubated at 30° C. for 6–8 hours. […] The mating products were plated on synthetic complete (SC) media (see Kaiser, Michaelis & Mitchell, Eds., 1994. *Methods in Yeast Genetics*, 1994 *Ed.* (Cold Spring Harbor Laboratory Press, New York, N.Y.) lacking adenine and lysine (to select for successful mating), leucine and tryptophan (to select for expression of genes encoded by both the bait and prey plasmids), and uracil and histidine (to select for protein interactions). This medium is hereinafter referred to as SCS medium, for SC Selective medium.
# (§2) Selected clones were subsequently examined for expression of β-galactosidase to confirm the formation of an HPS protein•HPS protein-IP interaction. […]
# (§3) The cells contained within colonies which were "positive" for protein interaction contained a mixture of DNA-binding and activation-domain plasmids. […] Approximately 10 μl of each selected isolate was lysed, the inserts within the pAD-GAL4 or pGAD-GH for the activation domain plasmids and pBD-GAL4 or pGBT9BS plasmids were PCR amplified using primers specific for the flanking sequences of each vector and approximately 300 nucleotides (of what would be the protein's amino-terminus following translation) was determined using an ABI 377 sequenator. […]
# [2] = target: B3; assay: yeast two-hybrid, reverse screen; listed in Table I as an interaction with HPS 1272-2357, 1 isolate
# Experimental: as §1, §2, §3
# [3] = target: T1, HPS protein fragment 1272-2306 fused to …; assay: yeast two-hybrid, reverse screen; listed in Table I as an interaction with HPS 1272-2306, 1 isolate
# Experimental: as §1, §2, §3
# [4] = target: T3, CDK2, prey insert starting at nucleotide 4 of GenBank X61622, fused to the Gal4 DNA binding domain (yeast; human, UniProt P04386 1-147); assay: yeast two-hybrid, reverse screen; listed in Table I as an interaction with HPS 1272-2357, 1 isolate
# T3 construct: Prey of the reverse screen; Residue limits derived from the printed nucleotide start; also called CDK2 X61622 4-*
# Experimental: as §1, §2, §3
# [5] = target: B5; assay: yeast two-hybrid, reverse screen; listed in Table I as an interaction with HPS 210-1292, 2 isolates
# Experimental: as §1, §2, §3
# [6] = target: T4, Atrophin-1, prey insert starting at nucleotide 2649 of GenBank U23851, fused to the Gal4 DNA binding domain (yeast; human, UniProt P04386 1-147); assay: yeast two-hybrid, reverse screen; listed in Table I as an interaction with HPS 210-1292, 1 isolate
# T4 construct: Prey of the reverse screen; Residue limits derived from the printed nucleotide start; also called Atrophin I; atrophin-I
# Experimental: as §1, §2, §3
binder,measurement,setting,value
B1,binding result,[1],binds
B2,binding result,[2],binds
same,binding result,[3],binds
B3,binding result,[4],binds
B4,binding result,[5],binds
B5,binding result,[6],binds
